Assay results reported in paper PMC8429977, “Phosphorylation of slit diaphragm proteins NEPHRIN and NEPH1 upon binding of HGF promotes podocyte repair” (The Journal of Biological Chemistry, 2021).

B1: NEPHRIN Peptide-1 (peptide)
peptide: PDITILLSGQTISDISANVNEGSQQKL
notes: also called NEPHRIN-P1; NEPHRIN P1; source: synthetic peptide (Fmoc solid phase, HPLC purified)
B2: NEPH1 Peptide-1 (peptide)
peptide: QEGERVVFTCQATANPEIL
notes: also called NEPH-P1; NEPH1-P1; source: synthetic peptide (Fmoc solid phase, HPLC purified)

Target: T1, purified human recombinant HGF (human, UniProt P14210 32-728)
T1 construct: hepatocyte growth factor, human, recombinant, purified; also called hepatocyte growth factor; recombinant human active HGF; source: bought: Sigma
Assay: far-Western, overlay or dot blot; 300 ng peptide spotted on nitrocellulose, blocked with fat-free milk, incubated with 1 μg recombinant purified HGF in 5% BSA in PBS at 4 °C, detected with anti-HGF antibody
Conditions: both partners purified

T1 sequence (P14210 32-728): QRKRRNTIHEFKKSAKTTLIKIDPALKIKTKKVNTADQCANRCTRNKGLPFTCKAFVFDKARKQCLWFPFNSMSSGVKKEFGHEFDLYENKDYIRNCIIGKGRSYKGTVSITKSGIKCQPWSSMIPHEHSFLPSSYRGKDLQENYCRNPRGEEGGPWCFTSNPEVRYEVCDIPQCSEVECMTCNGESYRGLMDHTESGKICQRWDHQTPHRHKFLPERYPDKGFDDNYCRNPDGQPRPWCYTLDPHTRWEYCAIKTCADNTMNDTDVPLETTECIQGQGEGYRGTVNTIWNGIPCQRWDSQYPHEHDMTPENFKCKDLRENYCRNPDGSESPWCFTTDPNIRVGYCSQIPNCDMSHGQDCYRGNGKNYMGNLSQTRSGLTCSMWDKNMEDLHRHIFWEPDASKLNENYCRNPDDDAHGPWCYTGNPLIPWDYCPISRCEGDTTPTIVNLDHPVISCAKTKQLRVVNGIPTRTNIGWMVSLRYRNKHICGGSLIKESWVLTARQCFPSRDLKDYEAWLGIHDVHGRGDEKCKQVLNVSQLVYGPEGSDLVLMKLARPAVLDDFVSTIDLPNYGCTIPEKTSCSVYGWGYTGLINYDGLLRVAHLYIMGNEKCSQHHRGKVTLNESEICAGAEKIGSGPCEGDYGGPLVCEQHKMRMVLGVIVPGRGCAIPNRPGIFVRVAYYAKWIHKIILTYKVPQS

Binder	binding result
B1	binds
B2	binds
